Data published in publication PMC5899921 (Cytoskeleton (Hoboken, N.J.), 2017).

Legend:
[1] = molecular target: the molecule itself; experiment: electron microscopy
[2] = molecular target: the molecule itself; experiment: fluorescence correlation spectroscopy with photon counting histogram analysis

Protein | stoichiometry N [1] | stoichiometry N [2]
Myo2p, heavy chain of fission yeast myosin-II Myo2, in purified "Phosphorylated Myo2" (natural protein, S. pombe, UniProt Q9USI6 1-1526, looked up, phosphoserine at 1444 (largely phosphorylated, LC/MS/MS)) MTEVISNKITAKDGATSLKDIDDKRWVWISDPETAFTKAWIKEDLPDKKYVVRYNNSRDEKIVGEDEIDPVNPAKFDRVNDMAELTYLNEPAVTYNLEQRYLSDQIYTYSGLFLVAVNPYCGLPIYTKDIIQLYKDKTQERKLPHVFAIADLAYNNLLENKENQSILVTGESGAGKTENTKRIIQYLAAIASSTTVGSSQVEEQIIKTNPVLESFGNARTVRNNNSSRFGKFIKVEFSLSGEISNAAIEWYLLEKSRVVHQNEFERNYHVFYQLLSGADTALKNKLLLTDNCNDYRYLKDSVHIIDGVDDKEEFKTLLAAFKTLGFDDKENFDLFNILSIILHMGNIDVGADRSGIARLLNPDEIDKLCHLLGVSPELFSQNLVRPRIKAGHEWVISARSQTQVISSIEALAKAIYERNFGWLVKRLNTSLNHSNAQSYFIGILDIAGFEIFEKNSFEQLCINYTNEKLQQFFNHHMFVLEQEEYMKEEIVWDFIDFGHDLQPTIDLIEKANPIGILSCLDEECVMPKATDATFTSKLDALWRNKSLKYKPFKFADQGFILTHYAADVPYSTEGWLEKNTDPLNENVAKLLAQSTNKHVATLFSDYQETETKTVRGRTKKGLFRTVAQRHKEQLNQLMNQFNSTQPHFIRCIVPNEEKKMHTFNRPLVLGQLRCNGVLEGIRITRAGFPNRLPFNDFRVRYEIMAHLPTGTYVESRRASVMILEELKIDEASYRIGVSKIFFKAGVLAELEERRVATLQRLMTMLQTRIRGFLQRKIFQKRLKDIQAIKLLQANLQVYNEFRTFPWAKLFFNLRPLLSSTQNDKQLKKRDAEIIELKYELKKQQNSKSEVERDLVETNNSLTAVENLLTTERAIALDKEEILRRTQERLANIEDSFSETKQQNENLQRESASLKQINNELESELLEKTSKVETLLSEQNELKEKLSLEEKDLLDTKGELESLRENNATVLSEKAEFNEQCKSLQETIVTKDAELDKLTKYISDYKTEIQEMRLTNQKMNEKSIQQEGSLSESLKRVKKLERENSTLISDVSILKQQKEELSVLKGVQELTINNLEEKVNYLEADVKQLPKLKKELESLNDKDQLYQLQATKNKELEAKVKECLNNIKSLTKELENKEEKCQNLSDASLKYIELQEIHENLLLKVSDLENYKKKYEGLQLDLEGLKDVDTNFQELSKKHRDLTFNHESLLRQSASYKEKLSLASSENKDLSNKVSSLTKQVNELSPKASKVPELERKITNLMHEYSQLGKTFEDEKRKALIASRDNEELRSLKSELESKRKLEVEYQKVLEEVKTTRSLRSEVTLLRNKVADHESIRSKLSEVEMKLVDTRKELNSALDSCKKREAEIHRLKEHRPSGKENNIPAVKTTEPVLKNIPQRKTIFDLQQRNANQALYENLKRDYDRLNLEKHNLEKQVNELKGAEVSPQPTGQSLQHVNLAHAIELKALKDQINSEKAKMFSVQVQYEKREQELQKRIASLEKVNKDSLIDVRALRDRIASLEDELRAA | 2 | –
mEGFP-Myo2 (Myo2 heavy chain with an N-terminal mEGFP tag) (natural protein, S. pombe, UniProt Q9USI6 1-1526, looked up) MTEVISNKITAKDGATSLKDIDDKRWVWISDPETAFTKAWIKEDLPDKKYVVRYNNSRDEKIVGEDEIDPVNPAKFDRVNDMAELTYLNEPAVTYNLEQRYLSDQIYTYSGLFLVAVNPYCGLPIYTKDIIQLYKDKTQERKLPHVFAIADLAYNNLLENKENQSILVTGESGAGKTENTKRIIQYLAAIASSTTVGSSQVEEQIIKTNPVLESFGNARTVRNNNSSRFGKFIKVEFSLSGEISNAAIEWYLLEKSRVVHQNEFERNYHVFYQLLSGADTALKNKLLLTDNCNDYRYLKDSVHIIDGVDDKEEFKTLLAAFKTLGFDDKENFDLFNILSIILHMGNIDVGADRSGIARLLNPDEIDKLCHLLGVSPELFSQNLVRPRIKAGHEWVISARSQTQVISSIEALAKAIYERNFGWLVKRLNTSLNHSNAQSYFIGILDIAGFEIFEKNSFEQLCINYTNEKLQQFFNHHMFVLEQEEYMKEEIVWDFIDFGHDLQPTIDLIEKANPIGILSCLDEECVMPKATDATFTSKLDALWRNKSLKYKPFKFADQGFILTHYAADVPYSTEGWLEKNTDPLNENVAKLLAQSTNKHVATLFSDYQETETKTVRGRTKKGLFRTVAQRHKEQLNQLMNQFNSTQPHFIRCIVPNEEKKMHTFNRPLVLGQLRCNGVLEGIRITRAGFPNRLPFNDFRVRYEIMAHLPTGTYVESRRASVMILEELKIDEASYRIGVSKIFFKAGVLAELEERRVATLQRLMTMLQTRIRGFLQRKIFQKRLKDIQAIKLLQANLQVYNEFRTFPWAKLFFNLRPLLSSTQNDKQLKKRDAEIIELKYELKKQQNSKSEVERDLVETNNSLTAVENLLTTERAIALDKEEILRRTQERLANIEDSFSETKQQNENLQRESASLKQINNELESELLEKTSKVETLLSEQNELKEKLSLEEKDLLDTKGELESLRENNATVLSEKAEFNEQCKSLQETIVTKDAELDKLTKYISDYKTEIQEMRLTNQKMNEKSIQQEGSLSESLKRVKKLERENSTLISDVSILKQQKEELSVLKGVQELTINNLEEKVNYLEADVKQLPKLKKELESLNDKDQLYQLQATKNKELEAKVKECLNNIKSLTKELENKEEKCQNLSDASLKYIELQEIHENLLLKVSDLENYKKKYEGLQLDLEGLKDVDTNFQELSKKHRDLTFNHESLLRQSASYKEKLSLASSENKDLSNKVSSLTKQVNELSPKASKVPELERKITNLMHEYSQLGKTFEDEKRKALIASRDNEELRSLKSELESKRKLEVEYQKVLEEVKTTRSLRSEVTLLRNKVADHESIRSKLSEVEMKLVDTRKELNSALDSCKKREAEIHRLKEHRPSGKENNIPAVKTTEPVLKNIPQRKTIFDLQQRNANQALYENLKRDYDRLNLEKHNLEKQVNELKGAEVSPQPTGQSLQHVNLAHAIELKALKDQINSEKAKMFSVQVQYEKREQELQKRIASLEKVNKDSLIDVRALRDRIASLEDELRAA | – | 2
